T1: hALPI (Homo sapiens, UniProt P09923)
T1 sequence (P09923 with tags, fused parts or gaps): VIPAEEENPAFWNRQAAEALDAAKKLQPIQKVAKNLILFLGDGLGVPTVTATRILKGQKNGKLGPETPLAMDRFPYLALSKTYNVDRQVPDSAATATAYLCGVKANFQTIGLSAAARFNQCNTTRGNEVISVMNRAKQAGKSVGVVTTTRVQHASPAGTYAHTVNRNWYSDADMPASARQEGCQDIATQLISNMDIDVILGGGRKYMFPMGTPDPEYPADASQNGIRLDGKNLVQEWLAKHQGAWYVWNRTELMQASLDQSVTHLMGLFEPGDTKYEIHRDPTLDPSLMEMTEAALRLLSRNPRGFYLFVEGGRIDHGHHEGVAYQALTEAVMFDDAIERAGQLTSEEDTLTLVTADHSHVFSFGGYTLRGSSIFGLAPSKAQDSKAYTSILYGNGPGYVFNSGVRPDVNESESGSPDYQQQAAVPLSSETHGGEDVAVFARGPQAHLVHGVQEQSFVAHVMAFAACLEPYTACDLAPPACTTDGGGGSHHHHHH


Key:
ALPP = ALPP (Homo sapiens, UniProt P05187); experiment: BLI binding kinetics, human ALPP immobilised on AR2G sensors (KD / KD apparent); conditions: VHH domains
Experimental: (§1) Binding kinetics were determined using the Biolayer Interferometry (BLI) Octet K2 system (Sartorius). Human ALPP, ALPPL2, ALPL (each fused with a cysteine stabilised leucine zipper) and ALPI, (SEQ ID NO: 265, SEQ ID NO: 266 and SEQ ID NO: 267 and SEQ ID NO: 264 respectively) were immobilised in sodium acetate pH5 buffer to AR2G sensors using amine coupling. All assays were conducted in PBS with a plate temperature of 25° C. Ka (M^−1s^−1), Kd (s^−1) and KD (nM) values were determined using Octet Data Analysis High Throughput software (ForteBio) for Biolayer Interferometry.
(§2) Binding kinetics were determined using the Biolayer Interferometry (BLI) Octet K2 or R4 system (Sartorius). Human ALPP, ALPPL2 and ALPL all fused with a disulphide stabilised leucine zipper (SEQ ID NO: 265, SEQ ID NO: 266, and SEQ ID NO: 267) and ALPI His (SEQ ID NO: 264) were used in BLI experiments. For KD apparent measurements, the ALPP proteins were immobilised in sodium acetate pH5 buffer to AR2G sensors using amine coupling. To measure 1:1 interactions, AHC biosensors were used to immobilise Fc-fused proteins. All assays were conducted in HBS-EP with a plate temperature of 25° C. Ka (M^−1s^−1), Kd (s^−1) and KD (nM) values were determined using Octet Data Analysis High Throughput software (Sartorius) for Biolayer Interferometry.
as §2, with “NO:264)” for “NO: 264)”

Human ALPPL2 = Human ALPPL2 (Homo sapiens, UniProt P10696); experiment: BLI binding kinetics, human ALPPL2 immobilised on AR2G sensors (KD / KD apparent); conditions: VHH domains
Experimental: as §1, §2
as §2, with “NO:264)” for “NO: 264)”

hALPI = biological target: T1, hALPI; experiment: BLI binding to ALPI His; conditions: VHH-hFc fusions, very low response values
Experimental: as §1
Binding kinetics were determined using the Biolayer Interferometry (BLI) Octet K2 or R4 system (Sartorius). Human ALPP, ALPPL2 and ALPL all fused with a disulphide stabilised leucine zipper (SEQ ID NO: 265, SEQ ID NO: 266, and SEQ ID NO: 267) and ALPI His (SEQ ID NO: 264) were used in BLI experiments. […] Ka (M^−1s^−1), Kd (s^−1) and KD (nM) values were determined using Octet Data Analysis High Throughput software (Sartorius) for Biolayer Interferometry.
Binding kinetics were determined using the Biolayer Interferometry (BLI) Octet K2 or R4 system (Sartorius). […] Ka (M^−1s^−1), Kd (s^−1) and KD (nM) values were determined using Octet Data Analysis High Throughput software (Sartorius) for Biolayer Interferometry.

Human ALPPL2, sequence (P10696 with tags, fused parts or gaps): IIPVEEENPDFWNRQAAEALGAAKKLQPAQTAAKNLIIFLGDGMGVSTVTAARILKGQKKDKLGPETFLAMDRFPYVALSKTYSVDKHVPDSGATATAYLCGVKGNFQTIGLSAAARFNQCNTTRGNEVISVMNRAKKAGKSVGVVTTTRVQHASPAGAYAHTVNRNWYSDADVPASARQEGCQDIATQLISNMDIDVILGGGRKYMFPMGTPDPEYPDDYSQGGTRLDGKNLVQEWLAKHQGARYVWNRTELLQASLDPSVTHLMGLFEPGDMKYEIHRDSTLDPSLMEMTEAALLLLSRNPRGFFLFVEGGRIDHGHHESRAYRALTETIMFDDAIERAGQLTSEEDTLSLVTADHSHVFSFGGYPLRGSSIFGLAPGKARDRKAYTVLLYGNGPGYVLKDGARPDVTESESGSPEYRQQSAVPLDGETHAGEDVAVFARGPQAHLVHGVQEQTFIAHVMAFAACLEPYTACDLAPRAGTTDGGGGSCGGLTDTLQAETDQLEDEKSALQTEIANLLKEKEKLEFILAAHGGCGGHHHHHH
ALPP, sequence (P05187 with tags, fused parts or gaps): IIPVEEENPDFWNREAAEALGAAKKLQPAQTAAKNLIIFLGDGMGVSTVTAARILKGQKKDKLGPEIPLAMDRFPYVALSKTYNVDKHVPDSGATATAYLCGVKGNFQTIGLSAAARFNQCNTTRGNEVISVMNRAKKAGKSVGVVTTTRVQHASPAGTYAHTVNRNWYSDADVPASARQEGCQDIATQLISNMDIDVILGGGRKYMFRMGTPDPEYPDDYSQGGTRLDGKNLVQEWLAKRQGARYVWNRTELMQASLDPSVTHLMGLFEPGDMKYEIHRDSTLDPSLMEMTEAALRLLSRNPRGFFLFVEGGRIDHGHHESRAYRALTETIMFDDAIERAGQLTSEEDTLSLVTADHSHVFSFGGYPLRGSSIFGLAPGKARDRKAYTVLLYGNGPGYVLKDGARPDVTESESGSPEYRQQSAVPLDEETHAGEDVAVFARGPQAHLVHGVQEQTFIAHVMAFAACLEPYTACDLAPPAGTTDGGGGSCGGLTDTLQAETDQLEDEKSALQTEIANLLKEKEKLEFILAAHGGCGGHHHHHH

Molecule	hALPP Ka (ALPP) [M⁻¹ s⁻¹]	hALPP Kd (ALPP) [s⁻¹]	hALPPL2 Ka (Human ALPPL2) [M⁻¹ s⁻¹]	hALPPL2 Kd (Human ALPPL2) [s⁻¹]	Kd (hALPI) [nM]
A05: ALPP/ALPPL2 targeting VHH domain, SEQ ID NO: 16; tested C-terminally His-tagged (protein, C-terminal His tag, tested C-terminally His-tagged) VHH: QVQLVESGGGLVQAGASLTLSCAASGFTFNTRSIVWFRQAPGKEREAVSCISKVAGSTYYGDSVQGRFSSSTDNAKNTVSLQMNSLKPEDTAVYTCAASFAPNCYGWSVAANMEYWGEGTMVTVSS	260000	<1e-07			
F05: ALPP/ALPPL2 targeting VHH domain, SEQ ID NO: 34 (protein) VHH: QVQLVESGGGLVQAGGSLRLSCAASGRAFGDYNIGWFRQAPGKEREFVARRTWDGSSTRYDDSVKGRFTVSIDNAKNTAYLQMNSLKTEDTAVYYCAAGRYSRVRGWEYDYWGQGTQVTVSS	13900	<1e-07	3740000	0.000356	
A06: ALPP/ALPPL2 targeting VHH domain, SEQ ID NO: 17; tested C-terminally His-tagged (protein, C-terminal His tag, tested C-terminally His-tagged) VHH: QVHLVESGGGLVQAGGSLRLSCAASGRTFLSMGWFRQAPGKEREFVAAISWTGGSTGYADSVKGRFTISRESDKETMYLQMNSLKPEDTAVYYCAARGDVYYGGDDATRYKYWGQGTQVTVSS	117000	0.000154	133000	0.000672	
D04: ALPP/ALPPL2 targeting VHH domain, SEQ ID NO: 26 (protein) VHH: QVQLVESGGGLVQPGGSLRLSCAASESTFSINVMGWYRQAPGKQRELVATITSGDITNYADSVKGRFTISRDNAENTVYLRTNSLKPEDTAVYYCNARGEYHSGNEYDYWGQGTQVTVSS	85100	<1e-07	754000	0.00022	
B01: ALPP/ALPPL2 targeting VHH domain, SEQ ID NO: 20 (protein) VHH: QVQLVESGGGLVQAGGSLRLSCEVTRSPMPIDTMAWYRQAPGRQRELVAIISRSGSTNYADSVKGRFTISRNDTKSTMYKSTMYLKMNTLELEDTGVYYCNAVGLWNGAEYWGQGTQVTVSS	162000	0.000191	482000	0.00014	148

The remaining lines, values ahead:

hALPP Ka (ALPP) [M⁻¹ s⁻¹]	hALPP Kd (ALPP) [s⁻¹]	hALPPL2 Ka (Human ALPPL2) [M⁻¹ s⁻¹]	hALPPL2 Kd (Human ALPPL2) [s⁻¹]	Kd (hALPI) [nM]	Molecule
67300	0.000013	2300000	0.0028		D10: ALPP targeting VHH domain, SEQ ID NO: 28 (protein) VHH: QVQLVESGGGLVQPGGSLRLSCAASGSIFSVNTMGWYRQAPGKQRDLVAVATSGGTIHYADSVKGRFTISRDNAKNTVYLQMNSLKPEDTAVYYCNLVVPYGMIAGDHDYWGQGTKVTVSS
252000	<1e-07	684000	<1e-07	10.8	F08: ALPP/ALPPL2 targeting VHH domain, SEQ ID NO: 35 (protein) VHH: QVQLVESGGGSVQAGGSLRLSCAASGPSLSNYAMGWFRQAPGKEREFVAGISWGGGRTSYTDSVKGRFTISRDNAKNTVYLQMNNLKPEDTGVYYCAGRYGRGRNVEYEYDYWGQGTQVTVSS
54200	<1e-07	1640000	0.000141		E10: ALPP/ALPPL2 targeting VHH domain, SEQ ID NO: 31 (protein) VHH: QVQLVESGGGLVQAGGSLRLSCAVSGRALSDYNIGWFRQAPGKEREFVARKTWDGSSTRYDDSVKGRFTVSIEDAKNTAYLQMSSLKTEDTAVYYCAAGRYSRARGWEYDYWGQGTQVTVSS
129000	0.000028	471000	0.000288		C07: ALPP/ALPPL2 targeting VHH domain, SEQ ID NO: 25 (protein) VHH: QVQLVESGGGLVQAGESLRLACAASGTIFSGNAVGWYRQAPEKQREWVSSITDYGDTDYAEAVKGRFTISRDNAKNTVYLQMNSLKPEDTAVYYCYVYQRGESEEYWGQGTQVTVSS
106000	<1e-07	1050000	0.0000875		E06: ALPP/ALPPL2 targeting VHH domain, SEQ ID NO: 30 (protein) VHH: QVHLVESGGGLVQAGGSLRLSCAASRRSFSEYAMGWFRQAPGKEREFVAAIGWSGVIEYADSVKGRFTISRDNAKDTVYLQMNSLKPEDTAVYYCAAGLGIRVVSQTPAYWGQGTQVTVSS

Source: patent publication US20260216242A1, “ALPP-SPECIFIC VARIANT ANTIGEN BINDING MOLECULES” (ALMAC DISCOVERY LIMITED, priority 2022, published 2026)
